Experimental data published in patent publication US20090010987A1, “Methods and Devices for Reducing Tissue Damage After Ischemic Injury” (Conor Medsystems, Inc., priority 2005, published 2009).

Experiment: Retention of insulin bioactivity when delivered in PLGA
Assay type: physicochemical
Details: delivered in poly(lactide-co-glycolide) (PLGA)
Excerpt: Protein or peptide drugs can be human, non-human, recombinant or synthetic and can be the full length native form or an active fragment thereof. Preferably the insulin is a stable, short acting form which is resistant to radiation. Insulin in its crystalline form may be used for improved resistance to radiation. When the insulin is combined with a polymer, an agent may be added to preserve bioactivity. […] For substantially longer administration periods, a buffering agent such as hydroxyapatite may be used to maintain the pH as the polymer degrades to release acidic byproducts.

Insulin: hormone which improves glycolic metabolism and ATP production; anti-ischemic agent
period over which bioactivity is retained: at least 24 hours
